We go through 3 molecules from article PMC11741422 (bioRxiv, 2025).

In one test the target is yeast Vo subunit d (yeast (Saccharomyces cerevisiae), UniProt P32366). The experiment in a line: cryo-EM structure.
Test [1] has as its target T1, lipid nanodisc reconstituted yeast V-ATPase Vo proton channel subcomplex (VoND) (Saccharomyces cerevisiae (S288c-type …, UniProt P32563;P25515;P32842;P23968;P32366;Q3E7B6;P0C5R9;P53262)). Nature of the test: BLI. On the technique in general: Biolayer interferometry detects binding as a change in optical thickness at a sensor tip.
The target in test [2] is yeast Vo proteolipid subunit c (Vma3p) (yeast (Saccharomyces cerevisiae), UniProt P25515). Nature of the test: cryo-EM structure.
Sequence of yeast Vo proteolipid subunit c (Vma3p) (P25515 whole entry): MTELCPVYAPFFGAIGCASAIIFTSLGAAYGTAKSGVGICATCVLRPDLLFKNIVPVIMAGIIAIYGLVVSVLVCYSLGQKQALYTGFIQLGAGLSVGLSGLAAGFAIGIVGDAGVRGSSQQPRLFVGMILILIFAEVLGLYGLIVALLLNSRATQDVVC
The target of test [3] is T1, lipid nanodisc reconstituted yeast …. Nature of the test: cryo-EM structure.

Where “and” joins values, the source holds several entries; their conditions need not be identical. Equal values may be shown once. Where only a bound is given, the exact number is not on record here.

Sequence of yeast Vo subunit d (P32366 whole entry): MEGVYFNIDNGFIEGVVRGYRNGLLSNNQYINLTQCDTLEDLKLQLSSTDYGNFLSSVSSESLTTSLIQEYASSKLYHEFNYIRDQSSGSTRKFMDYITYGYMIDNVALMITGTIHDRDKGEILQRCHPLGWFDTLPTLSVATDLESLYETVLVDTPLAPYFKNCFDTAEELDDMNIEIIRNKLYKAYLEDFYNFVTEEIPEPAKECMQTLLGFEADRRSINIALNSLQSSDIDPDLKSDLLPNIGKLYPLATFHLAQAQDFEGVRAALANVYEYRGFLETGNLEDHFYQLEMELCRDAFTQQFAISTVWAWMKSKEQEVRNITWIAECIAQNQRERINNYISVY

B1: Nanobody N2149 (2WVA149) (VHH)
VHH: QVQLQESGGGLVQAGGSLRLSCAVSGSIFSGNAMDWYRQAPGKQRELVASLTSTGSTNYADSVKGRFTITRDNAKNTVYLQMNSLKPEDTAVYYCHALIYRSRLDLAPGNYWGQGTQVTVSS
In general, Kd refers to the concentration at which binding is half-saturated. Regarding B1, the binding result with yeast Vo subunit d is recorded as “binds”. The same molecule returned a Kd in test [1] of 0.09 ± 0.023 nM.

B2: Nanobody N27 (2WVA7) (VHH)
VHH: QVQLQESGGGLVEIGGSLRLSCAASGTLFTFNTMAWYRQAPGKQREFIATITSGGNTNYADSVQGRFTISRGNAKNTLYLQMNSLKPEDTAVYYCNARTMTGPFDYWGQGTQVTVSS
The term stoichiometry N denotes the number of molecules, sites or subunits per partner or assembly. As to B2, the binding result in test [2] is recorded as “binds”. Also, the “stoichiometry N” value in test [3] amounted to 8 N27 per VoND. Also, the Kd in test [1] was under 0.001 nM.

B3: Nanobody N125 (1WVA25) (VHH)
VHH: QVQLQESGGGLVQPGGSLRLSCVASGFTFSRYAMTWVRQAPGKGLEWVSDISSGGSSTFYTDSVKGRFTISRDNAKNTLYLQMNSLKPDDTAIYFCAKGVPSYYSDYERRSKRYDSRGQGTQVTVSS
As to B3, in test [2], the binding result is reported as “binds”. In addition, in test [3], the “stoichiometry N” value is 4 N125 per VoND and 3 N125 per VoND. In test [1], this molecule came in with a dissociation constant Kd of 0.013 ± 0.001 nM.
